T1: GST-ETO (UniProt Q06455-2 1-577)
T1 sequence (looked up): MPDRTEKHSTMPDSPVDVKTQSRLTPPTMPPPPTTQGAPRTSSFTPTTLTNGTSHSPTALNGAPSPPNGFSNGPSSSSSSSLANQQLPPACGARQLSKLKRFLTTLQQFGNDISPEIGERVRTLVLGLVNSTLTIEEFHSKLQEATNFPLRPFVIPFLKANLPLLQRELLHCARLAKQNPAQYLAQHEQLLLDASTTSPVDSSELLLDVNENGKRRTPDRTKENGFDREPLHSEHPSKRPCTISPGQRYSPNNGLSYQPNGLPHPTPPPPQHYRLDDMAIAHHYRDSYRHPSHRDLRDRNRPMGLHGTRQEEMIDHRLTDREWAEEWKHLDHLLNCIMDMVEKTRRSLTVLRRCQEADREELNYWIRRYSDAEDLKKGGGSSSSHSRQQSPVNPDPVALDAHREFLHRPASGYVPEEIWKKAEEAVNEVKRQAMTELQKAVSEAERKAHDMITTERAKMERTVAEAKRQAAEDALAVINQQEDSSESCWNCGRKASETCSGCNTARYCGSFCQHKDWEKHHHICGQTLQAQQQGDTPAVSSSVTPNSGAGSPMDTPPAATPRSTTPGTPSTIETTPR


Assays:
GST-ETO [1] = biological target: GST-ETO (UniProt Q06455); assay: pull-down
GST-ETO [2] = biological target: T1, GST-ETO; assay: pull-down

fold reduction of binding relative to E2A-AD (GST-ETO [1]) | fold reduction of binding relative to E2A-AD (GST-ETO [2]) | Molecule
4 fold |  | isolated DES domain of E2A, in vitro translated Gal4-DBD fusion (domain or fragment)
 | ~24 fold | E2A-AD1 (amino acids 1-90), in vitro translated (domain or fragment, UniProt P15923 1-90, looked up, 35S label) MNQPQRMAPVGTDKELSDLLDFSMMFPLPVTNGKGRPASLAGAQFGGSGLEDRPSSGSWGSGDQSSSSFDPSRTFSEGTHFTESHSSLSS
